Results taken from PMC5063618 (Molecular Biology of the Cell, 2016).
Read-outs that look alike come from different tables or passages of the source.

Tests used:
[1] = target: T1, rabbit skeletal muscle actin, as filaments (rabbit, UniProt P68135 1-377); experiment: co-sedimentation
[2] = target: T1, rabbit skeletal muscle actin, as …; experiment: co-sedimentation; remark: listed apart in the source
[3] = target: the molecule itself; experiment: AUC
[4] = target: T1, rabbit skeletal muscle actin, as …; experiment: co-sedimentation; remark: listed apart in the source
[5] = target: T1, rabbit skeletal muscle actin, as …; experiment: co-sedimentation; remark: listed apart in the source
[6] = target: T1, rabbit skeletal muscle actin, as …; experiment: co-sedimentation; remark: listed apart in the source
[7] = target: T1, rabbit skeletal muscle actin, as …; experiment: co-sedimentation; remark: listed apart in the source
[8] = target: T1, rabbit skeletal muscle actin, as …; experiment: co-sedimentation; remark: listed apart in the source
[9] = target: T1, rabbit skeletal muscle actin, as …; experiment: TIRF microscopy, fluorescence decay after washout
[10] = target: T1, rabbit skeletal muscle actin, as …; experiment: TIRF microscopy, fluorescence decay after washout; remark: listed apart in the source
[11] = target: T1, rabbit skeletal muscle actin, as …; experiment: TIRF microscopy, fluorescence decay after washout; remark: listed apart in the source
[12] = target: T1, rabbit skeletal muscle actin, as …; experiment: TIRF microscopy, fluorescence decay after washout; remark: listed apart in the source
[13] = target: T1, rabbit skeletal muscle actin, as …; experiment: TIRF microscopy, fluorescence decay after washout; remark: listed apart in the source
[14] = target: T1, rabbit skeletal muscle actin, as …; experiment: TIRF microscopy, fluorescence decay after washout; remark: listed apart in the source
[15] = target: T1, rabbit skeletal muscle actin, as …; experiment: TIRF microscopy, fluorescence decay after washout; remark: listed apart in the source
[16] = target: T1, rabbit skeletal muscle actin, as …; experiment: TIRF microscopy, fluorescence decay after washout; remark: listed apart in the source
[17] = target: T1, rabbit skeletal muscle actin, as …; experiment: TIRF microscopy, fluorescence decay after washout; remark: listed apart in the source
[18] = target: T1, rabbit skeletal muscle actin, as …; experiment: TIRF microscopy, fluorescence decay after washout; remark: listed apart in the source
[19] = target: T1, rabbit skeletal muscle actin, as …; experiment: TIRF microscopy, fluorescence decay after washout; remark: listed apart in the source
[20] = target: T1, rabbit skeletal muscle actin, as …; experiment: TIRF microscopy, fluorescence decay after washout; remark: listed apart in the source
[21] = target: T1, rabbit skeletal muscle actin, as …; experiment: TIRF microscopy, fluorescence decay after washout; remark: listed apart in the source

B1: human Drp1 isoform 000 (dynamin-related protein-1), wild type (enzyme, UniProt O00429-4 1-699, looked up)
chain: MEALIPVINKLQDVFNTVGADIIQLPQIVVVGTQSSGKSSVLESLVGRDLLPRGTGIVTRRPLILQLVHVSQEDKRKTTGEENGVEAEEWGKFLHTKNKLYTDFDEIRQEIENETERISGNNKGVSPEPIHLKIFSPNVVNLTLVDLPGMTKVPVGDQPKDIELQIRELILRFISNPNSIILAVTAANTDMATSEALKISREVDPDGRRTLAVITKLDLMDAGTDAMDVLMGRVIPVKLGIIGVVNRSQLDINNKKSVTDSIRDEYAFLQKKYPSLANRNGTKYLARTLNRLLMHHIRDCLPELKTRINVLAAQYQSLLNSYGEPVDDKSATLLQLITKFATEYCNTIEGTAKYIETSELCGGARICYIFHETFGRTLESVDPLGGLNTIDILTAIRNATGPRPALFVPEVSFELLVKRQIKRLEEPSLRCVELVHEEMQRIIQHCSNYSTQELLRFPKLHDAIVEVVTCLLRKRLPVTNEMVHNLVAIELAYINTKHPDFADACGLMNNNIEEQRRNRLARELPSAVSRDKVASGGGGVGDGVQEPTTGNWRGMLKTSKAEELLAEEKSKPIPIMPASPQKGHAVNLLDVPVPVARKLSAREQRDCEVIERLIKSYFLIVRKNIQDSVPKAVMHFLVNHVKDTLQSELVGQLYKSSLLDDLLTESEDMAQRRKEAADMLKALQGASQIIAEIRETHLW
Q: What does the source list for B1?
A: Kd [1]: 500 nM; Kd [2]: 200 nM; stoichiometry N [3]: 4; Kd [4]: 600 nM; Kd [5]: 1100 nM; Kd [6]: 400 nM; Kd [7]: 800 nM; Kd [8]: 2800 nM

B2: GFP-Drp1 (human Drp1 isoform 000 with N-terminal GFP A206K) (enzyme)
chain: B1 chain
Q: What does the source list for B2?
A: t1/2 of dissociation [9]: 26.9 ± 20.6 s; t1/2 of dissociation [10]: 8.1 ± 4.3 s; t1/2 of dissociation [11]: 93.2 ± 94.5 s; t1/2 of dissociation [12]: 40 ± 20.3 s; t1/2 of dissociation [13]: 48.7 ± 20.6 s; t1/2 of dissociation [14]: 9.9 ± 4.4 s; t1/2 of dissociation [15]: 9.8 s; t1/2 of dissociation [16]: 93.1 ± 88 s; t1/2 of dissociation [17]: 84.1 ± 93.6 s; t1/2 of dissociation [18]: 4.1 ± 1.4 s; t1/2 of dissociation [19]: 16.5 ± 2.5 s; t1/2 of dissociation [20]: 5.4 ± 2 s; t1/2 of dissociation [21]: 115 ± 43.5 s
